Laboratory results published in PMC9371921, “Strand annealing and motor driven activities of SMARCAL1 and ZRANB3 are stimulated by RAD51 and the paralog complex” (Nucleic Acids Research, 2022).

Legend:
[1] = molecular target: T1, SMARCAL1 F439 F→A variant (human, UniProt Q9NZC9 1-954, F439 (F→A variant)); test: pull-down; MBP-RAD51 (bait) from bacterial soluble extract bound to amylose resin and washed; purified FLAG-SMARCAL1, FLAG-ZRANB3 or FLAG-BCDX2 (1 μg, prey) in 150 μl IP buffer (25 mM Tris-HCl pH 7.5, 100 mM NaCl, 3 mM EDTA, 0.5 mM DTT, BSA, 10% glycerol), 1 h at 4°C; eluted with maltose; Western blot with anti-MBP and anti-FLAG; conditions: both partners purified
T1 construct: human SMARCAL1 with F439 disrupted; the methods call the variants SMARCAL1 F→A variants; construct as m1; The text says only 'disruption of F439'; also called disruption of F439; source: Sf9, purified similarly as the wild type
T1 sequence (looked up): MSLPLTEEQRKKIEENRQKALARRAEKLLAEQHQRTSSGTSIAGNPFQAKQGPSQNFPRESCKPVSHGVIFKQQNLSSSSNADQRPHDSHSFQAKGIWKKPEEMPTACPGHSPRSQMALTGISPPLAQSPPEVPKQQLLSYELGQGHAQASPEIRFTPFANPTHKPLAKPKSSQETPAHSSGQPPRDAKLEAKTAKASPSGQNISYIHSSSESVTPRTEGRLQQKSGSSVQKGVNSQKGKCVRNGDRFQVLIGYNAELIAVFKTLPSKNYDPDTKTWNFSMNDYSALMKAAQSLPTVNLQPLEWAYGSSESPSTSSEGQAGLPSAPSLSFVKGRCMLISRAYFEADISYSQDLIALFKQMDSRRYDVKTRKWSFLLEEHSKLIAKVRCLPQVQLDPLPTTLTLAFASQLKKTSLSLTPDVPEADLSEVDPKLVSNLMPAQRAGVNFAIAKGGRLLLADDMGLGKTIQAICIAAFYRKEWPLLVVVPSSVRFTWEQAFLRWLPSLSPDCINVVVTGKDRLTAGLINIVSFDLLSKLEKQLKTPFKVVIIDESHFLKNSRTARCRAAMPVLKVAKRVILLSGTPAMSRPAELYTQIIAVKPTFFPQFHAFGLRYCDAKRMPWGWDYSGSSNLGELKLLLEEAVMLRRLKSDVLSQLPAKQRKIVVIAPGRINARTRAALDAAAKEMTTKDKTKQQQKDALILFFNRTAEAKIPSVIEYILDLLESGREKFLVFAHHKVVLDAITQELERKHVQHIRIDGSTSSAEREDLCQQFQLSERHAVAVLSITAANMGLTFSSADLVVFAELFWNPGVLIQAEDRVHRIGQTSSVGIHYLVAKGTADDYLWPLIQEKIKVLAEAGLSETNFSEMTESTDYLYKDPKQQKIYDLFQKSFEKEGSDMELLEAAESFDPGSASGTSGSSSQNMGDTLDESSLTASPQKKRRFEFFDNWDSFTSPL

[2] = molecular target: T2, FLAG-SMARCAL1 (human, UniProt Q9NZC9 1-954); test: as above; conditions: both partners purified
T2 construct: also called SMARCAL1-WT; SMARCAL1 wild type
T2 sequence (looked up): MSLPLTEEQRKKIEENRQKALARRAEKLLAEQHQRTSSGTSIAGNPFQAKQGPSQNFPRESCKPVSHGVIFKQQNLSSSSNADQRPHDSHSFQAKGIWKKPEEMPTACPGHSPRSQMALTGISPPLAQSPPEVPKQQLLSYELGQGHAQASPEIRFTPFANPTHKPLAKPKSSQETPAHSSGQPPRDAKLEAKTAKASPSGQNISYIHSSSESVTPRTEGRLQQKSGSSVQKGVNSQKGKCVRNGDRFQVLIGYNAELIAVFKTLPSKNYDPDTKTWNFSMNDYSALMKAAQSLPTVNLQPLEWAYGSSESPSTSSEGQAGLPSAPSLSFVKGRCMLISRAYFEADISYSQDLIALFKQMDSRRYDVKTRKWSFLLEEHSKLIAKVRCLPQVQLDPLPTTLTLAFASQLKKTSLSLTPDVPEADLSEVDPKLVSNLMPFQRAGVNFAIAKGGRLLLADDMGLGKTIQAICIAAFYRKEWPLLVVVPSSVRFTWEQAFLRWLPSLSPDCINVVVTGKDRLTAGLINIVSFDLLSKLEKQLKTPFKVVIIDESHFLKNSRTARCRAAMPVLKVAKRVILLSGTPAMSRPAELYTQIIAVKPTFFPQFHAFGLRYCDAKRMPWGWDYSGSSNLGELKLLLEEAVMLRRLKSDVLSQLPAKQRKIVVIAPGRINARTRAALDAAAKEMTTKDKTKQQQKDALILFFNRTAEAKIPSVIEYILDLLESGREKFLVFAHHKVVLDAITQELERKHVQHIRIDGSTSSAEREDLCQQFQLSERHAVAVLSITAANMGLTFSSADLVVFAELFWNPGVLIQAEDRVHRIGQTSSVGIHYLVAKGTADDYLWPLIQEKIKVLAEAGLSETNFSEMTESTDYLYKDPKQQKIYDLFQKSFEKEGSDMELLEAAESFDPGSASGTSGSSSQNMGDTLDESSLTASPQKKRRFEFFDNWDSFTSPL

binding result [1]: binds
binding result [2]: binds
B1: MBP-RAD51 (natural protein, human, UniProt Q06609 1-339, looked up)
chain: MAMQMQLEANADTSVEEESFGPQPISRLEQCGINANDVKKLEEAGFHTVEAVAYAPKKELINIKGISEAKADKILAEAAKLVPMGFTTATEFHQRRSEIIQITTGSKELDKLLQGGIETGSITEMFGEFRTGKTQICHTLAVTCQLPIDRGGGEGKAMYIDTEGTFRPERLLAVAERYGLSGSDVLDNVAYARAFNTDHQTQLLYQASAMMVESRYALLIVDSATALYRTDYSGRGELSARQMHLARFLRMLLRLADEFGVAVVITNQVVAQVDGAAMFAADPKKPIGGNIIAHASTTRLYLRKGRGETRICKIYDSPCLPEAEAMFAINADGVGDAKD
notes: In the pull-downs the MBP tag was kept; the RAD51 of the DNA annealing assays was the same construct with the MBP cut off by PreScission protease and purified on HiTrap Q; not shown: MBP, N-terminal, kept
